Reference: publication PMC7447783, “Cryo-EM structure of trimeric Mycobacterium smegmatis succinate dehydrogenase with a membrane-anchor SdhF” (Nature Communications, 2020)
Values belong to the molecule of their own block, whether it stands above or below them.

Assays:
[1] = target: Mycobacterium smegmatis succinate dehydrogenase Sdh2 (trimer of SdhA-SdhB-SdhC-SdhD-SdhF protomers) (M. smegmatis) (UniProt A0QT09); assay: cryo-EM structure; digitonin-solubilised Sdh2 complex co-purified from M. smegmatis membranes, 5 mg/mL, 20 mM MOPS pH 7.4, 100 mM NaCl, 0.1% digitonin; 2.8 Å
[2] = target: T1, Sdh2 (trimeric diheme succinate:menaquinone oxidoreductase, complex II) (Mycolicibacterium smegmatis, UniProt A0QT08+A0QT09+A0QT10); assay: cryo-EM structure, […] Å; type: binding; details: co-purified; SdhA subunit
T1 construct: gene sdhA; SdhD with C-terminal 10xHis tag (pVV16) expressed in M. smegmatis; digitonin-solubilised, Ni-NTA and gel filtration; trimer of SdhABCDF; SdhF 3 kDa; with Succinate dehydrogenase iron-sulfur subunit; Succinate dehydrogenase membrane-anchor subunit SdhF

[3] = target: the molecule itself; assay: cryo-EM structure; digitonin-solubilised Sdh2 complex co-purified from M. smegmatis membranes, 5 mg/mL, 20 mM MOPS pH 7.4, 100 mM NaCl, 0.1% digitonin; 2.8 Å

stoichiometry N [1]: 3
Molecule: Mycobacterium smegmatis succinate dehydrogenase Sdh2 (trimer of SdhA-SdhB-SdhC-SdhD-SdhF protomers) (from UniProt A0QT09 1-156) (complex)

Molecule: Cc1cc2nc3c(=O)[nH]c(=O)nc-3n(C[C@H](O)[C@H](O)[C@H](O)COP(=O)(O)OP(=O)(O)OC[C@H]3O[C@@H](n4cnc5c(N)ncnc54)[C@H](O)[C@@H]3O)c2cc1C [FAD]
cryo-EM structure, 2.8 Å [2]: All the prosthetic groups (FAD, [2Fe-2S], [4Fe-4S], [3Fe-4S], and two b-type heme groups)

B1: SdhD subunit of M. smegmatis Sdh2 (membrane-anchored protein) with C-terminal 10x His tag (natural protein)
chain: MSAPGAGESRLGRPAPVMEREHDRPAALDHPRAPRKPRGIPYFEKYAWLFMRFSGIALVFLALGHLFIMLMWQDGVYRIDFNYVAERWASPFWQIWDMALLWLAMIHGANGMRTIIGDYARKNVTKFWLNSLLLLATGFTLVLGSYVLVTFDANIS
notes: SdhD (Sdh2D), membrane-anchor subunit of M. smegmatis Sdh2 with three transmembrane helices (IV-VI), gene MSMEG_1671; also called Sdh2D; subunit D; source: M. smegmatis mc2 51, expressed from pVV16; digitonin extract of membranes, purified with the complex (Ni-NTA, Superdex 200); not shown: His10, C-terminal, kept
binding result [3]: binds
